B2: ferritin purified from horse spleen (mixture of FTH1 and FTL subunits) (other)
chain 1: TTAFPSQVRQNYHQDSEAAINRQINLELHASYVYLSMSFYFDRDDVALKNFAKYFLHQSHEEREHAEKLMKLQNQRGGRIFLQDIKKPDQDDWENGLKAMECALHLEKNVNESLLELHKLATDKNDPHLCDFLETHYLNEQVKAIKELGDHVTNLRRMGAPESGMAEYLFDKHTLGECDES
chain 2: SSQIRQNYSTEVEAAVNRLVNLYLRASYTYLSLGFYFDRDDVALEGVCHFFRELAEEKREGAERLLKMQNQRGGRALFQDLQKPSQDEWGTTLDAMKAAIVLEKSLNQALLDLHALGSAQADPHLCDFLESHFLDEEVKLIKKMGDHLTNIQRLVGSQAGLGEYLFERLTLKHD
notes: Bought from Sigma (A3641 in the MYC assays, F4503 in the GST pull-downs); detected with anti-FTH1 antibody; also called Apoferritin; apo-ferritin purified from equine spleen

Columns and labels:
[1] = biological target: B2; assay: anti-MYC immunoprecipitation of in vitro translated MYC-NCOA4 with horse spleen ferritin, FTH1 immunoblot
[2] = biological target: T1, C-terminal MYC-NCOA4 (aa 235-614) (human, UniProt Q13772 235-614); assay: anti-MYC immunoprecipitation of in vitro translated MYC-NCOA4 with horse spleen ferritin, immunoblot
T1 construct: In vitro translated; also called C-terminal NCOA4; NCOA4 C-terminal fragment; not shown: N-terminal MYC tag (vector pT7CFE1-NMyc)
T1 sequence: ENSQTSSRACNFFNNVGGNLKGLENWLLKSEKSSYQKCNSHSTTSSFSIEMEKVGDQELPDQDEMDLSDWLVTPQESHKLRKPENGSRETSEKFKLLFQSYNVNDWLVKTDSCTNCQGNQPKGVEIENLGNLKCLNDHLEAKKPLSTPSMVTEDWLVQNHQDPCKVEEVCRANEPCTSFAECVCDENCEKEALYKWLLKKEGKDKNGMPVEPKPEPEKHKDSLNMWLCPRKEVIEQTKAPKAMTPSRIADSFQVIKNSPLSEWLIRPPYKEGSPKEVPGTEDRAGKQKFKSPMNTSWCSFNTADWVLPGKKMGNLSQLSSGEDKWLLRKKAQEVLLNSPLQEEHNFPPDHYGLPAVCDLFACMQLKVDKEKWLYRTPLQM

MYC-NCOA4 full-length = biological target: T2, MYC-NCOA4 full-length (human, UniProt Q13772 1-614); assay: as above
T2 construct: not shown: N-terminal MYC tag (vector pT7CFE1-NMyc)
T2 sequence: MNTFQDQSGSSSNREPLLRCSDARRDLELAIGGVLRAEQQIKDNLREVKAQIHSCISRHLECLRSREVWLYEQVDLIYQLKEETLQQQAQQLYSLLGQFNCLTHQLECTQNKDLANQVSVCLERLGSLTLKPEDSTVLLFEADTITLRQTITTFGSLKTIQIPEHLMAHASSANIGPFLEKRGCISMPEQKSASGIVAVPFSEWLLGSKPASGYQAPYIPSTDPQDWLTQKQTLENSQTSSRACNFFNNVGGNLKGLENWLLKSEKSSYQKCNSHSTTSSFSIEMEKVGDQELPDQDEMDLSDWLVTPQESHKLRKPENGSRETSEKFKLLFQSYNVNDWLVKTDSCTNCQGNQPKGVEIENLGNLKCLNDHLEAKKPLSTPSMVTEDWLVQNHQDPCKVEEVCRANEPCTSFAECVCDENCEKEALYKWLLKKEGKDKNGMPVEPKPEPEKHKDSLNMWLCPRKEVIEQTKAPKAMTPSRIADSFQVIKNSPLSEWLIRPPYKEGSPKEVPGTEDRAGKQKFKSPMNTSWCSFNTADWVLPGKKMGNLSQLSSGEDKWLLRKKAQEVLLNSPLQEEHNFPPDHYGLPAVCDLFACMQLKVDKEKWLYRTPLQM

[3] = biological target: B2; assay: anti-MYC immunoprecipitation of in vitro translated MYC-NCOA4B with horse spleen ferritin, FTH1 immunoblot

B1: N-terminal MYC-NCOA4 (aa 1-245) (other)
chain: MNTFQDQSGSSSNREPLLRCSDARRDLELAIGGVLRAEQQIKDNLREVKAQIHSCISRHLECLRSREVWLYEQVDLIYQLKEETLQQQAQQLYSLLGQFNCLTHQLECTQNKDLANQVSVCLERLGSLTLKPEDSTVLLFEADTITLRQTITTFGSLKTIQIPEHLMAHASSANIGPFLEKRGCISMPEQKSASGIVAVPFSEWLLGSKPASGYQAPYIPSTDPQDWLTQKQTLENSQTSSRACN
notes: In vitro translated; also called N-terminal NCOA4; NCOA4 N-terminal fragment; not shown: N-terminal MYC tag (vector pT7CFE1-NMyc)
B1: no binding [1].

B2: binds [2]; binds (MYC-NCOA4 full-length).

B3: MYC-tagged NCOA4B (transcript variant, amino acids 1-238 and 555-614 of full-length NCOA4) (other)
chain: MNTFQDQSGSSSNREPLLRCSDARRDLELAIGGVLRAEQQIKDNLREVKAQIHSCISRHLECLRSREVWLYEQVDLIYQLKEETLQQQAQQLYSLLGQFNCLTHQLECTQNKDLANQVSVCLERLGSLTLKPEDSTVLLFEADTITLRQTITTFGSLKTIQIPEHLMAHASSANIGPFLEKRGCISMPEQKSASGIVAVPFSEWLLGSKPASGYQAPYIPSTDPQDWLTQKQTLENSQGEDKWLLRKKAQEVLLNSPLQEEHNFPPDHYGLPAVCDLFACMQLKVDKEKWLYRTPLQM
notes: in vitro translated; also called NCOAB; not shown: N-terminal MYC tag (vector pT7CFE1-NMyc)
B3: no binding [3].

From patent publication US20170182119A1 (Dana-Farber, published 2017)
